The target of this experiment is HLCS-NLuc (Myc-HLCS fused to the N-terminal fragment of firefly luciferase) (human) (UniProt P50747). In words: split reporter.
Chain of UniProt P50747 (P50747 whole entry, the tested form may be a part): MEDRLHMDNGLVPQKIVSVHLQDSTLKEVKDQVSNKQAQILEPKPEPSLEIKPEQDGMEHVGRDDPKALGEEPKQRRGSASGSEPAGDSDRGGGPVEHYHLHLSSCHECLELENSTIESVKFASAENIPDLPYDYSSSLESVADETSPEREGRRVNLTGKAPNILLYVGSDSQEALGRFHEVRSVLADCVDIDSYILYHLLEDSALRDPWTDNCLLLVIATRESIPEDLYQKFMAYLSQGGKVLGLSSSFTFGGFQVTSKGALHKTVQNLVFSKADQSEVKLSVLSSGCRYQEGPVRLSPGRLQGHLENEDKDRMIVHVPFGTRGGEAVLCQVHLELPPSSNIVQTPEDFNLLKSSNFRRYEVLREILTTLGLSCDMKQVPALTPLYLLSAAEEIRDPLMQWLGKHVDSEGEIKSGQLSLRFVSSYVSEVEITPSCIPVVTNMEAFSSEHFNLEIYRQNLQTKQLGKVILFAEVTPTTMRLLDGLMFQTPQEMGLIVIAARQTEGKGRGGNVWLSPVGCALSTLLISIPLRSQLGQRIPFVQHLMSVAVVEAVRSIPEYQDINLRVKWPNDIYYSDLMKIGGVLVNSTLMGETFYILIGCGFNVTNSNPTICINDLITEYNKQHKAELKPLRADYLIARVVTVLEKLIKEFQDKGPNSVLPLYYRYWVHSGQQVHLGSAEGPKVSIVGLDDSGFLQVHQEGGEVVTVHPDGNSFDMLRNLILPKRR

In the case of “N-CoR-CT-CLuc (Myc-N-CoR C-terminal domain fused to the C-terminal fragment of firefly luciferase) (domain or fragment)”, the luminescence signal, fold of TP53-NLuc plus CDK3-CLuc (negative control) was 3.1 fold and the luminescence signal, fold of unfused NLuc plus CLuc (background control) was 3.7 fold.
With “HDAC1Δ31-CLuc (Myc-HDAC1Δ31 fused to the C-terminal fragment of firefly luciferase) (enzyme)”, the luminescence signal, fold of TP53-NLuc plus CDK3-CLuc (negative control) amounted to 2.4 fold and the luminescence signal, fold of unfused NLuc plus CLuc (background control) was 2.9 fold.

Values taken from PMC4743672.
